Reference: patent publication KR20130033273A (dated 2013)

Target: T1, IGF-1R (Insulin-like growth factor 1 receptor) on the surface of MCF-7 cells (UniProt P08069 31-1367, limits assumed)
T1 construct: whole, on cells; Endogenous receptor of MCF-7 cells; also called MCF-7 세포 표면 IGF-1R 항원; IGF-1 수용체
Assay: flow cytometry (FACS) on MCF-7 cells, 1 ug/ml antibody, anti-human IgG-FITC

T1 sequence (P08069 31-1367 limits assumed): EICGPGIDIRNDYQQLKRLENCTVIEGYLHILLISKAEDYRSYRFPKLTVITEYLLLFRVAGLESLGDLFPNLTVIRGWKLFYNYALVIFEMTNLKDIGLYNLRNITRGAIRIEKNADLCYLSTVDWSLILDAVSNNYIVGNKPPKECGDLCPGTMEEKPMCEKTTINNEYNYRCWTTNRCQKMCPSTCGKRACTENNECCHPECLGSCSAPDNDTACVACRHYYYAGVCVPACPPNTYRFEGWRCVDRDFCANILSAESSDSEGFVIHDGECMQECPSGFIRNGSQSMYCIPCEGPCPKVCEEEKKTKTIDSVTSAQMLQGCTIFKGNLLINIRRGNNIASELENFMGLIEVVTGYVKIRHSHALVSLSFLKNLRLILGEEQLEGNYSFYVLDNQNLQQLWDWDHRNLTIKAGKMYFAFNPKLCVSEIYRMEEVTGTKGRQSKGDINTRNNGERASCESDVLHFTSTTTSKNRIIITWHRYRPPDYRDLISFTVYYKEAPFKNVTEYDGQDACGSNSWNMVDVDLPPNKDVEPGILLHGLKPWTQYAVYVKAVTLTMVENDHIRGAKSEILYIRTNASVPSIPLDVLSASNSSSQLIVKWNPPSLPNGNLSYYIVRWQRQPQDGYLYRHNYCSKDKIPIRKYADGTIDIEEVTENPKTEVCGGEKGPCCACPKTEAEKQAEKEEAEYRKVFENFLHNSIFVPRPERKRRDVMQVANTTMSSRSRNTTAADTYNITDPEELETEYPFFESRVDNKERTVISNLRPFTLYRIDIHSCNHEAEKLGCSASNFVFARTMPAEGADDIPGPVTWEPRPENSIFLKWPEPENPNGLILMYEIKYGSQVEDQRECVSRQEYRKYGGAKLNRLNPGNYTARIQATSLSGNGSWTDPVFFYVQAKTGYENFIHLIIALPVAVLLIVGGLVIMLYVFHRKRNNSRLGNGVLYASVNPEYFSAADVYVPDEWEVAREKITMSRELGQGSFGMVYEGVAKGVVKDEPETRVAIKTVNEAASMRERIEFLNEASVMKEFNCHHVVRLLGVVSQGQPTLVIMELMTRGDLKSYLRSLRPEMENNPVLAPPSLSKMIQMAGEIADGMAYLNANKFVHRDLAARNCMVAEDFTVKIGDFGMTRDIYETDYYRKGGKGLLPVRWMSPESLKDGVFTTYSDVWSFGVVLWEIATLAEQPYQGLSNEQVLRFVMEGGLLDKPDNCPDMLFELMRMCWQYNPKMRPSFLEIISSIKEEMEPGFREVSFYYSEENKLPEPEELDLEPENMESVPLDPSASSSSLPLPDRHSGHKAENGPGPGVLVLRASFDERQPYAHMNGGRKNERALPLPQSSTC

B1: 항IGF-1R 항체(A12) (antibody, human IgG1, lambda, V domains shown)
VH: EVQLVQSGAEVKKPGSSVKVSCKASGGTFSSYAISWVRQAPGQGLEWMGGIIPIFGTANYAQKFQGRVTITADKSTSTAYMELSSLRSEDTAVYYCARAPLRFLEWSTQDHYYYYYMDVWGKGTTVTVSS
VL: SSELTQDPAVSVALGQTVRITCQGDSLRSYYATWYQQKPGQAPILVIYGENKRPSGIPDRFSGSSSGNTASLTITGAQAEDEADYYCKSRDGSGQHLVFGGGTKLTVLG
notes: IgG form; also called 항암항체(A12); Imclone사(A12) 항IGF-1R 항체
binding result: binds
